Results taken from US20160177324A1, “NOVEL PROTEIN AND GENE RELATED TO FLAVONOID O-METHYLTRANSFERASE (FOMT) AND THEIR USES THEREFORE” (INSTITUTE OF BOTANY, THE CHINESE ACADEMY OF SCIENCES, priority 2013, published 2016).
Substitutions are numbered along the chain they refer to. Numbers in names are those of the source.

Tests used:
[1] = Comparison of activities among recombinant polypeptides with site mutagenesis; assay type: biochemical; conditions: for Activity (%), portion of recombinant protein activity compared with PsFOMT: Cy3G5G as substrate
Procedure: The reaction system was according to Hugueney et al. with some modification (Hugueney, P., et al., A novel cation-dependent O-methyltransferase involved in anthocyanin methylation in grapevine. Plant Physiology, 2009. 150(4): p. 2057-2070.). Purified recombinant FOMT (2 μg) was assayed in a final volume of 200 μL containing 200 μM SAM, 1 mM MgCl2, 14 mM β-mercaptoethanol, 100 mM Tris, pH 7.5, and 20 μM flavonoid substrates. Incubation was performed at 35° C. and stopped with 200 μL methanol containing 2% formic acid. For enzyme kinetic studies, purified FOMT was incubated based on the above condition with the exception that a range of substrate concentrations from 5 to 200 μM were used for Km determination. Reaction product was analyzed by a Dionex HPLC system (Sunnyvale, Calif.), equipped with a P680 HPLC pump, an UltiMate 3000 autosampler, a TCC-100 thermostated column compartment and a Dionex PDA100 photodiode array detector. The analytical column was C18 column of ODS 80Ts QA (150 mm×4.6 mm, 5 μm i.d., Tosoh, Tokyo) protected with a C18 guard cartridge (Shanghai ANPEL Scientific Instrument, Shanghai). The following solvent and gradient were used: A, 10% aqueous formic acid; B, methanol; constant gradient from 10 to 36% B within 15 min and back to 10% B in 3 min; the flow rate was 0.8 mL min^−1; Column temperature was maintained at 35° C.; 20 μL of analyte was injected. Chromatograms were obtained at 525 nm for anthocyanins and 350 nm for other flavonoids, and photodiode array spectra were recorded from 200 to 800 nm. Km and Vmax values were calculated from Lineweaver-Burk plots.
To validate the key amino acid responsible for the activity, site-directed mutagenesis was carried out using the PCR method and Fast Mutagenesis System (TransGen), and primer sequences used are given in Table 1. Four constructs were built following the template sequence of PtFOMT, named as PtFOMT-G13E, PtFOMT-T85A, PtFOMT-R87L, and PtFOMT-T205R. The corresponding recombinant proteins were purified and the catalytic activities were examined. […] The other mutants have no significant improved activity compared with PtFOMT. The leucine at 87-position is a vital residue for the methyltransferase activity.

[2] = test system: Nicotiana tabacum cv.Nc89; experiment: Flavonoid O-methyltransferase activity in transgenic tobacco; assay type: in vivo
Excerpt: The full length genes were introduced with a BamHl site and an XhoI site on 5′- and 3′-end by PCR with primers SEQ No. 5 & 6. The double digested fragment of interest and eukaryotic expression vector pBI121 with BamHl site and an XhoI were ligated. Then the appropriate constructs were introduced into Agrobacterium strain EHA105 by electroporation.
Leaf of Nicotiana tabacum cv.Nc89 plant (Donated by Professor Silan Dai, Beijing Forestry University) was disinfected by 75% ethanol for 30 s, followed by 2% sodium hypochlorite for 3 minutes, and then washed with sterile water for three times. The leaf was cut into squares (25 mm^2) A single colony of Agrobacterium strain EHA105 with pBI121-FOMT construct was used to inoculate with 2 mL of YEB medium (per liter: 5 g of beef extract, 1 g of yeast extract, 5 g of sucrose, and 0.5 g of MgSO4.7H2O), supplemented with 50 mg mL^−1 kanamycin and 25 mg mL^−1 Rifampicin. The culture was incubated at 28° C. until OD600 0.6-0.8, and the bacteria were pelleted by centrifugation at 5000 rpm for 5 minutes. The cells were washed by MS liquid medium and resuspended pellets with appropriate volume of MS liquid. The tobacco leaf squares were dipped into the bacteria solution for 8 minutes and cultivated on MS media containing 2.0 mg L^−1 6-benzylaminopurine (6-BA), 0.2 mg L^−1 1-naphthylacetic acid (NAA), and 500 mg L^−1 ceflomine. The explants were transferred to fresh selected medium after two weeks. When the regenerating plantlets grow to 2 cm, move them to MS media containing 0.2 mg L^−1 NAA to induce root. After four weeks, the transgenic tobacco plantlets were transferred to pots and kept in the greenhouse till flowering. The positive transgenic lines were selected by PCR, and transgenic plantlets with empty plasmid were used as control. The anthocyanins in transgenic petals were detected with an HPLC system.
Appropriate amount of sample (petal, fruits) was powdered with mortars and pestles and extracted for the first time with 2 mL 2% (v/v) formic acid methanol solution shaken in a QL-861 vortex (Kylinbell Lab Instruments, Jiangsu, China), sonicated in KQ-500DE ultrasonic cleaner (Ultrasonic instruments, Jiangsu Kunshan, China) at 20° C. for 20 min, centrifuged in SIGMA 3K30 (SIGMA centrifugers, Germany) (12000 rpm, 10 min), and the supernatant was collected. Additional 2 mL and 1 mL extraction solution was supplemented to the residue, and repeated aforesaid operation for the second and third times. All extract was pooled and filtrated through 0.22 μm reinforced nylon membrane filters (Shanghai ANPEL, Shanghai, China) before the HPLC-DAD and HPLC-ESI-MS^n analyses. Three replicates were performed for each sample. […]
HPLC-ESI-MS^n analysis was carried with an Agilent-1100 HPLC system equipped with a UV detector coupled to a LC-MSD Trap VL ion-trap mass spectrometer via an ESI source (Agilent Technologies, Palo Alto, Calif.). […] The MS conditions were listed as follow: negative-ion (NI) mode; capillary voltage of 3.5 kV; a nebulization pressure of 241.3 kPa; and a gas (N2) temperature of 350° C. with flow rate of 6.0 L min^−1 Capillary offset voltage was 77.2 V. MS spectra were recorded over the range from m/z 50-1000.

B1: PtFOMT: similar O-methyltransferase cloned from Paeonia tenuifolia, SEQ ID NO: 4; differs from PsFOMT at positions 13, 85, 87, 205 (protein, listed as Paeonia tenuifolia)
chain: MAESDRKGILKSGALLKYILETSVYPREHEQLKQLRQATVDKYKYWSVMNVPADEGQFLSMLLKIMNAKKTIEVGVFTGYSLLTTARALPTDAKITAIDPDGEAYETGLPFIKKAGVEHKINYIQADAMSVLDDLVTNGKEEGSFDFAFVDADKENYAKYHEPLMKLVKIGGIIGYDNTLWFGSVALSDGDEMKEFQEKGRRIFTEFNTFLAADPRIELAHISIGDGLALCRRLY
[1]; Incubation 5 min
  Activity (%), portion of recombinant protein activity compared with PsFOMT: 0%
[1]; Incubation 30 min
  Activity (%), portion of recombinant protein activity compared with PsFOMT: 4.2%
[2]; transgenic tobacco flowers
  flower color compared with control lines: no obvious difference
[2]; transgenic tobacco petals vs empty vector
  methyltransferase function in tobacco petal (new anthocyanin Pn3R detected): performed as a methyltransferase

B2: PtFOMT-R87L: site-directed mutant of PtFOMT, R87L (protein)
chain: B1 chain with R87L
[1]; Incubation 5 min
  Activity (%), portion of recombinant protein activity compared with PsFOMT: 100.7%
[1]; Incubation 30 min
  Activity (%), portion of recombinant protein activity compared with PsFOMT: 104.5%
[1]; recombinant purified proteins
  catalytic activity of site-directed mutants: regain the activity equal to PsFOMT

B3: PtFOMT-G13E: site-directed mutant of PtFOMT, G13E (protein)
chain: B1 chain with G13E
[1]; Incubation 5 min
  Activity (%), portion of recombinant protein activity compared with PsFOMT: 0%
[1]; Incubation 30 min
  Activity (%), portion of recombinant protein activity compared with PsFOMT: 18.5%

B4: PtFOMT-T205R: site-directed mutant of PtFOMT, T205R (protein)
chain: B1 chain with T205R
[1]; Incubation 5 min
  Activity (%), portion of recombinant protein activity compared with PsFOMT: 0%
[1]; Incubation 30 min
  Activity (%), portion of recombinant protein activity compared with PsFOMT: 38.1%

B5: PtFOMT-T85A: site-directed mutant of PtFOMT, T85A (protein)
chain: B1 chain with T85A
[1]; Incubation 5 min
  Activity (%), portion of recombinant protein activity compared with PsFOMT: 0%
[1]; Incubation 30 min
  Activity (%), portion of recombinant protein activity compared with PsFOMT: 14.0%
